Assay results: paper PMC8121781, “Molecular basis for the disruption of Keap1–Nrf2 interaction via Hinge & Latch mechanism” (Communications Biology, 2021)
Square brackets hold non-standard residues; d marks the D form. Ends that are not written are not given here. pS = N[C@@H](COP(=O)(O)O)C(=O)O

Target: T1, full-length mouse wild-type Keap1-6xHis (Kelch-like ECH-associated protein 1) (mouse, UniProt Q9Z2X8 1-624)
T1 construct: Keap1, mouse, full-length protein Met1-Cys624; also called full-length Keap1; Keap1 homodimer; not shown: 6xHis, C-terminal, kept
Assay: NMR titration; competition: preformed complex of 0.05 mM 13C/15N-Neh2 and 0.1 mM Keap1 (1:2) titrated with p62-KIR peptide (phosphorylated 0.25-5 mM, non-phosphorylated 1.0 and 5 mM); 20 mM Tris-HCl pH 8.0, 100 mM NaCl, 4 mM TCEP; read-out is recovery of Neh2 signals
Conditions: both partners purified

T1 sequence (Q9Z2X8 whole entry): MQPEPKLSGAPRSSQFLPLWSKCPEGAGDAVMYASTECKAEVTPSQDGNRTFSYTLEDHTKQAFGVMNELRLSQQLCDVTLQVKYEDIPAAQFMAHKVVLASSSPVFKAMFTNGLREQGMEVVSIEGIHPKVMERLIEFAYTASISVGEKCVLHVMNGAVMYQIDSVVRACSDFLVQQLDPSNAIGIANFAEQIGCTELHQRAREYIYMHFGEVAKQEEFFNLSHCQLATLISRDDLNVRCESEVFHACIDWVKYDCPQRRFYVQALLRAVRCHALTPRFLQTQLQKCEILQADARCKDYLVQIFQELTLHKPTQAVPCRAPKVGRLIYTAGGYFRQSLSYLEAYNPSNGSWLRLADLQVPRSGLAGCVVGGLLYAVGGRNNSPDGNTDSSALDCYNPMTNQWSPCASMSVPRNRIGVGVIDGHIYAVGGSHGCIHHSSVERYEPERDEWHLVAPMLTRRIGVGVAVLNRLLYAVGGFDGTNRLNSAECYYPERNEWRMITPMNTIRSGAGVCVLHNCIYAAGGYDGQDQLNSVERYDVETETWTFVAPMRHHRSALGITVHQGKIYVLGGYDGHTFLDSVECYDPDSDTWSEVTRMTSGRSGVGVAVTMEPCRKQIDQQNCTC

B1: phosphorylated p62-KIR peptide (peptide)
peptide: KEVDP[pS]TGELQSLQ
notes: also called P-p62-KIR; p62-pKIR peptide; source: bought: Toray Research Center
  binding result: binds
